Here are results for two molecules from patent publication US20180371083A1 (Merck Sharp & Dohme, published 2018).

The Kd is the free concentration of one partner at which half of the binding sites on the other are occupied at equilibrium, for simple one-to-one binding. In general, EC50 (read off the curve) refers to the concentration needed to bring the measured effect to its halfway point.

In assay [1] the target is T1, human TIGIT expressed on cells (CHO-K1 transfectants; Jurkat over-expressing human TIGIT) (human, UniProt Q495A1 25-244).
T1 sequence: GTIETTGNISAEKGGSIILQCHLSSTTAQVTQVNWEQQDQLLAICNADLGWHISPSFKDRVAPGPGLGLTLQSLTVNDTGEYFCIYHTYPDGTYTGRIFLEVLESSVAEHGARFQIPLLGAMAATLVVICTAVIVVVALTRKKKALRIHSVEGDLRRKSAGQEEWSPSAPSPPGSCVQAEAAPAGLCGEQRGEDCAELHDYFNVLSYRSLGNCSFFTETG
The experiment in a line: cell-based or functional assay.

Assay [2] addresses T2, human TIGIT-His protein (extracellular domain of human TIGIT fused to His tag) (human, UniProt Q495A1 25-141).
T2 construct: also called hTIGIT-His; hTIGIT-HIS
T2 sequence: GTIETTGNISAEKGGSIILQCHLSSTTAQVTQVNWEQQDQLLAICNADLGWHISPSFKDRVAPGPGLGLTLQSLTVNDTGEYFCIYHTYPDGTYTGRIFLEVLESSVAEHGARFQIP
The experiment in a line: SPR, Biacore T200; antibody captured on anti-mouse IgG, human TIGIT-His as analyte; 1:1 Langmuir fit. On the procedure:
The kinetic binding activity of anti-human TIGIT antibodies 14D7 and 26B10 (made as described in Example 1) and of commercial antibody MBSA43 was measured by surface plasmon resonance using a Biacore T200 system (Biacore, GE Healthcare, Piscataway, N.J.). […] Mouse anti-human TIGIT clones, 14D7, 26B10 and MBSA43, were each injected over the immobilized anti-mouse surfaces at 1 μg/mL for a capture level of 40 RU. HBS-EP+ buffer (BR-1006-69) was used as the running buffer with a flow rate of 30 μL/min. Varying concentrations of human TIGIT-His protein, ranging from 0.29 nM to 40 nM, at a flow rate of 45 μL/min were injected over the antibody surfaces. Following each Mouse anti-human TIGIT injection cycle, the Series S CM5 chip surface was regenerated using one three-minute injection of 10 mM Glycine pH 1.7 at a flow rate of 10 μL/min.
Background subtraction binding sensorgrams were used for analyzing the rate constant of association (kₐ) and dissociation (kd), and the equilibrium dissociation constant KD. The resulting data sets were fitted with a 1:1 Langmuir Binding Model using the Biacore T200 evaluation software (version 2.0). Table 3 summarizes the affinities for the anti-human TIGIT antibodies to human TIGIT-His protein.
For orientation: Surface plasmon resonance follows binding to a sensor surface in real time, without labels.

Assay [3] addresses T1, human TIGIT expressed on cells (CHO-K1 …). The experiment in a line: cell-based ELISA on CHO cells expressing human TIGIT (panel 'Binding to CHO-human TIGIT Cells'). On the technique in general: An ELISA detects its analyte on a solid surface through an enzyme-linked reagent.
The target is the same in assay [4]. Put plainly: cell-based ELISA blocking assay: binding of human CD155-huFc to CHO-hTIGIT cells in the presence of titrated antibody.
Assay [5] deals with T3, cynomolgous/rhesus TIGIT expressed on CHO-K1 cells (cynomolgous monkey / rhesus monkey).
T3 construct: also called cyno/rhesus TIGIT; cyno/rhesus TIGIT-CHOK1 cells
T3 sequence (chain, as listed by the source): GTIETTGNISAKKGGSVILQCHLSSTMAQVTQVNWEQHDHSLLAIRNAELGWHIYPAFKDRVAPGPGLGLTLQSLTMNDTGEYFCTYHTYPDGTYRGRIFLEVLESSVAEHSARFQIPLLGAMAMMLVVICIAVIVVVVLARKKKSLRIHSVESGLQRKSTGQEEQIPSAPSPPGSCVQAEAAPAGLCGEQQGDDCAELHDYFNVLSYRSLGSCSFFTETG
The experiment in a line: cell-based ELISA on CHO cells expressing rhesus TIGIT (panel 'Binding to CHO-rhesus TIGIT Cells').

B1: mouse anti-human TIGIT antibody 26B10 (clone MEB125.26B10) (antibody, V domains shown)
VH: EVQLQQSGPELVKPGASVKISCKTSGYTFTEFTMHWVKQSHGKSLEWIGGLKPDNGGISYNQKFKGRATLAVDKSSNTAYMELRSLTSEDSAVYYCARGAYYRYDADYWGQGTTLTVSS
VL: DIVLTQSHKFMSTSVGDRVSITCKASQDVKTAVAWYQQKSGQSPKLLIYSASYRNTGVPDRFTGSGSGTDFTFTIDSVQAEDLAVYFCQQHYSTPFTFGTGTKLELK
notes: Mouse IgG1/kappa; also called 26B10 (mIgG1/K)
Take B1: in assay [1], the “EC50, rescue of IL-2 in hTIGIT-Jurkat / THP-1 co-culture with CD155-Fc or CD112-Fc” value turned out to be 190 ng/mL. The molecule further had a dissociation constant Kd in assay [2] of 140 pM. The “EC50 (read off the curve)” value in assay [3] is around 0.05 ng/mL; in assay [5], around 0.04 ng/mL. Moreover, in assay [4], the “IC50 (read off the curve)” value was around 50000 ng/mL.

B2: mouse anti-human TIGIT antibody 14D7 (clone MEB125.14D7) (antibody, V domains shown)
VH: EVKLEESGGGLVQPGGSMKLSCVASGFTFSGAWMDWVRQSPEKGLEWVAEIRTKVNNHATNYGESVKGRFTISRDDSKSSVYLQMNNLRAEDSGIYYCRGALYDGFYFDYWGQGTTLTVSS
VL: QIVLTQSPAIMSASPGEKVNLTCSASSSVSSGYLYWYQQKPGSSPKLWIYGTSTLASGVPARFSGSGSGTSYSLTISNMEAEDAASYFCHQWSSFPYTFGGGTKLEMK
notes: Mouse IgG1/kappa; also called 14D7 (mIgG1/K); MEB125.14D7.C1.C1
Take B2: the “EC50, rescue of IL-2 in hTIGIT-Jurkat / THP-1 co-culture with CD155-Fc or CD112-Fc” value in assay [1] is 170 ng/mL. The molecule also yielded a Kd in assay [2] of 4.6 pM. The concentration giving a half-maximal response (EC50 (read off the curve)) in assay [3] and in assay [5] was around 0.06 ng/mL throughout. Besides, the “IC50 (read off the curve)” value in assay [4] is around 80000 ng/mL.
